Like-named read-outs stand apart in the source and are kept apart here.
Key:
[1] = target: the molecule itself; experiment: SEC
[2] = target: the molecule itself; experiment: SEC; remark: listed apart in the source

| Protein | stoichiometry N [1] | stoichiometry N [2] |
| --- | --- | --- |
| phosphoribulokinase of C. reinhardtii (enzyme, UniProt P19824 32-375, looked up) DKDKTVVIGLAADSGCGKSTFMRRMTSIFGGVPKPPAGGNPDSNTLISDMTTVICLDDYHCLDRNGRKVKGVTALAPEAQNFDLMYNQVKALKEGKSVDKPIYNHVSGLIDAPEKIESPPILVIEGLHPFYDKRVAELLDFKIYLDISDDIKFAWKIQRDMAERGHSLESIKSSIAARKPDFDAYIDPQKKDADMIIQVLPTQLVPDDKGQYLRVRLIMKEGSKMFDPVYLFDEGSTISWIPCGRKLTCSFPGIKMFYGPDTWYGQEVSVLEMDGQFDKLEELIYVESHLSNTSAKFYGEITQQMLKNSGFPGSNNGTGLFQTIVGLKVREVYERIVKKDVVPV | 2 | – |
| phosphoribulokinase of A. thaliana (enzyme, A. thaliana (endogenous in leaves), UniProt P25697 47-395, looked up) AQETIVIGLAADSGCGKSTFMRRLTSVFGGAAKPPKGGNPDSNTLISDTTTVICLDDYHSLDRYGRKEQKVTALDPRANDFDLMYEQVKALKNGIAVEKPIYNHVTGLLDPPELIQPPKILVIEGLHPMFDERVRDLLDFSIYLDISNEVKFAWKIQRDMAERGHSLESIKASIEARKPDFDAFIDPQKQYADAVIEVLPTTLIPDDNEGKVLRVRLIMKEGVKYFSPVYLFDEGSTISWIPCGRKLTCSYPGIKFNYEPDSYFDHEVSVLEMDGQFDRLDELIYVESHLSNLSTKFYGEVTQQMLKHADFPGSNNGTGLFQTIVGLKIRDLYEQLIANKATARAEAKA | – | 2 |
